From patent US20070081975A1

Molecular target: recombinant human IL-18 (human) (UniProt Q14116)
Test: cell-based or functional assay

Sequence of recombinant human IL-18 (human) (Q14116 37-193 limits assumed): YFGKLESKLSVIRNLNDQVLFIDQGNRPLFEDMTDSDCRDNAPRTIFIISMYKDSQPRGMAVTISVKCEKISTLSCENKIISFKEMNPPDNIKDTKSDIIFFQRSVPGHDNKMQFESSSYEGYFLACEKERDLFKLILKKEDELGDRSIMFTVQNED

| Substance | IFN-γ (ng/ml); bioassay with human IL-18 (20 ng/ml), LPS (2 µg/ml) and murine splenocytes (control 7.5) [ng/mL] |
| --- | --- |
| His6-tagged IL-18BPa transiently expressed in COS7 cells (IL-18BP-His6) (from UniProt O95998 31-194) | 0 |
| PNGase-treated IL-18BP-His6 (deglycosylated IL-18BPa-His6) (from UniProt O95998 31-194) | 0 |
